Laboratory results: patent US20240026344A1

Biological target: AAV8 capsids (adeno-associated virus 8 (AAV8))
Assay: BLI (ForteBio), control ligand on sensor, AAV8 capsids 5x10^11 particles/mL, response after 4000 s

Non-binding ligand (control) (designed binder)
Response: 0.03
